Measured values from patent US20260185118A1 (priority 2023, published 2026).
Where a chain is given by its changes, count along the chain named. Like-named read-outs stand apart in the source and are kept apart here.

What was measured:
bacterial and fungal = conditions: it has been shown; cited from earlier work
[1] = system: Huanglongbing pathogen CLas; type: in vivo, Candidatus Liberibacter asiaticus; conditions: for disease phenotype: 3 months after grafting infected branches onto transgenic citrus; for pathogen titer versus vector control: qPCR, newborn leaves
[2] = system: Huanglongbing pathogen CLas; set-up: species or system Candidatus Liberibacter asiaticus; conditions: in vivo
[3] = system: Huanglongbing pathogen CLas; type: in vivo, Candidatus Liberibacter asiaticus; conditions: 7 days after feeding of CLas-carrying psyllids, qPCR
CsMYC2 [4] = type: binding, Citrus sinensis; conditions: yeast AH109, SD-Leu-Trp-His with 5 mM 3-AT
CsMYC2 [5] = type: cell-based, Citrus sinensis; conditions: tobacco leaves, 2-3 days, cytoplasm and nucleus
CsMYC2 protein = type: cell-based, Citrus sinensis; conditions: tobacco leaves, 35S:CsMYC2-myc co-injected, versus 35S:YFP
[6] = system: terpene synthase CsTPS21 gene cluster; type: in vivo, Valencia orange; conditions: transgenic citrus leaves overexpressing, compared with blank vector control
CsPUB21 = type: biochemical, Citrus sinensis; conditions: in the presence of E1 (AtUBA1) and E2 (AtUBC8), anti-c-myc immunoblot
CsMYC2 [7] = type: biochemical, Citrus sinensis; conditions: with AtUBA1, AtUBC8 and ubiquitin, anti-MBP immunoblot
[8] = type: biochemical, Citrus sinensis L.Osbeck; conditions: 2 μg protein, 10 μg FPP, 30° C., 30 min

C=C1CC/C=C(\C)CC[C@@H]2[C@@H]1CC2(C)C [β-caryophyllene]
bacterial and fungal killing effect (bacterial and fungal): rapid bacterial and fungal killing effect

B1: CsPUB21-Myc (protein)
chain: MILSWKRLRGGRGRRAGKKQPGVESGGEMELTTPNHFRCPISLDLMKDPVTLSTGITYDRENIEKWIHEDGNITCPVTNRVLTSFEPIPNHTIRRMIQDWCVENRSYGIERIPTPRIPVSSVEVFEINCNITTACKSEDQAGCRDLVAKIKKWTKESDRNKRCIVDNGAVSVLAEAFETFSKTCLDENVSVLEEILSTLTLLFPLAGEGLTYLGSASSMRCMVWFLKSGDLSRRRNAVLVLREIVSSDHRKVNVLLDIEGAIEPLFKLIKEPICPTATKASLVVVYRTITSASATEKPIQKFVDMGLVSLLLEMLVDAQRSLCEKALSVLDGLCSSDYGRGDAYNNSLIFPVIVKKILRVSDLATEFAVSILWKLCKNEEREEKTAFAEALQVGAFQKLLLLLQVGCADKTKEHVSELLKLLNPHRARLECIDSMDFKDLKRPF
polyubiquitination of MBP-CsMYC2 (immunoblot with anti-MBP tag antibody; E. coli system with AtUBA1, AtUBC8 and FLAG-UBQ) (MBP-CsMYC2-HA): CsPUB21 is able to effectively polyubiquitinate the CsMYC2 protein in vitro

B2: CsPUB21DN (protein)
chain: B1 chain with C39A
modifications: left off: large carriers
disease phenotype [1]: still show a healthy state
pathogen titer versus vector control ([1]; 3 months of infestation): lower pathogen titer than the vector control plants
concentration of CLas in the susceptible leaves [2]: significantly reduced
CLas detection versus vector control plants [3]: significantly lower than that of the vector control plants
Ct values versus healthy plants [3]: no difference in the Ct values

B3: CsPUB21DN-Myc (protein)
chain: B1 chain with C39A
polyubiquitination of MBP-CsMYC2 (immunoblot with anti-MBP tag antibody; E. coli system with AtUBA1, AtUBC8 and FLAG-UBQ) (MBP-CsMYC2-HA): CsPUB21DN cannot ubiquitinate CsMYC2

B4: YFP-CsPUB21 (protein)
chain: B1 chain
accumulated level of the CsMYC2 protein on co-expression in tobacco leaves (immunoblot, anti-c-myc) (CsMYC2-myc): the accumulated level of the CsMYC2 protein and coexpression of CsPUB21 were significantly reduced

B5: YFP-CsPUB21DN (protein)
chain: B1 chain with C39A
accumulated level of the CsMYC2 protein on co-expression in tobacco leaves (immunoblot, anti-c-myc) (CsMYC2-myc): this reduction was inhibited by coexpression of CsPUB21DN

B6: CsPUB21: citrus plant U-box E3 ubiquitin ligase protein, amino acid sequence SEQ ID No. 1; overexpressed in citrus (protein)
chain: B1 chain
pathogen titer versus vector control ([1]; 2 and 3 months of pathogen infestation): significantly higher than that of the vector control
disease phenotype [1]: show disease characteristics of Huanglongbing infection
interaction with CsMYC2 (yeast two-hybrid) (CsMYC2 [4]): interaction between CsPUB21 and CsMYC2 was confirmed
interaction with CsMYC2 (BiFC) (CsMYC2 [5]): confirmed
accumulated level of the CsMYC2 protein on coexpression (CsMYC2 protein): significantly reduced
expression of four CsTPS21 genes (CsTPS21-2, CsTPS21-7, CsTPS21-9, CsTPS21-10) [6]: significantly reduces
E3 ubiquitin ligase activity (auto-ubiquitination) (CsPUB21): has the E3 ubiquitin ligase activity
polyubiquitination of the CsMYC2 protein in vitro (CsMYC2 [7]): able to effectively polyubiquitinate

B7: CsTPS21-7: citrus terpene synthase protein, SEQ ID No. 7, purified as GST fusion protein (protein)
chain: MKDMSIPLLAAVSSSTEETVRPIADFHPTLWGNHFLKSAADVETIDAATQEQHAALKQEVRRMITTTANKLAQKLHMIDAVQRLGVAYHFEKEIEDELGKVSHDLDSDDLYVVSLRFRLFRQQGVKISCDVFDKFKDDEGKFKESLINDIRGMLSLYEAAYLAIRGEDILDEAIVFTTTHLKSVISISDHSHVNSNLAEQIRHSLQIPLRKAAARLEARYFLDIYSRDDLHDETLLKFAKLDFNILQAAHQKEASIMTRTKDISEVDTILGVKVKKHSGERANISIIFDFFRWDIGLIDTLPEYMKFIVKALLDIYREAEEELAKEGRSYGIPYAKQMMQELIILYFTEAKWLYKGYVPTFDEYKSVALRSIGLRTLAVASFVDLGDFIATKDNFECILKNAKSLKATETIGRLMDDIAGYKFEQKRGHNPSAVECYKNQHGVSEEEAVKELLLEVANSWKDINEELLNPTTVPLPMLQRLLYFARSGHFIYDDGHDRYTHSLMMKRQVALLLTEPLAI
modifications: GST fusion tag
7-epi-sesquiterpene share of the total compounds [8]: 4.79±0.11%
(E)-β-farnesene share of the total compounds [8]: 5.54±0.32%
sesquiterpene share of the total compounds [8]: 7.86±0.70%
β-caryophyllene share of the total product [8]: 81.81±0.92%
